This is an account of results in publication PMC12881670, “Investigation into ligand selectivity and bias at the formyl peptide receptor family” (The Journal of Pharmacology and Experimental Therapeutics, 2025).

The target in assay [1] is T1, FLAG-tagged human FPR2 (Hs_FPR2) (human, UniProt P25090 1-351).
T1 sequence (looked up): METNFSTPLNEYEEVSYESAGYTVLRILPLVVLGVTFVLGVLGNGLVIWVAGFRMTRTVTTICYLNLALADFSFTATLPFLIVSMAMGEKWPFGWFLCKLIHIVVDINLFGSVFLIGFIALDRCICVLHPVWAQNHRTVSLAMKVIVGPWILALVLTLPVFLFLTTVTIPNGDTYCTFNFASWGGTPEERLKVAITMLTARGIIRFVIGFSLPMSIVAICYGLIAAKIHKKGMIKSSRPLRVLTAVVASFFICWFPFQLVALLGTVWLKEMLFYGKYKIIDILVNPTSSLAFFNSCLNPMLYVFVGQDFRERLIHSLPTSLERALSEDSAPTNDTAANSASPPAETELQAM

Assay [2] has as its target T2, FLAG-tagged mouse Fpr1 (Mm_Fpr1) (mouse, UniProt P33766 1-364).
T2 sequence (looked up): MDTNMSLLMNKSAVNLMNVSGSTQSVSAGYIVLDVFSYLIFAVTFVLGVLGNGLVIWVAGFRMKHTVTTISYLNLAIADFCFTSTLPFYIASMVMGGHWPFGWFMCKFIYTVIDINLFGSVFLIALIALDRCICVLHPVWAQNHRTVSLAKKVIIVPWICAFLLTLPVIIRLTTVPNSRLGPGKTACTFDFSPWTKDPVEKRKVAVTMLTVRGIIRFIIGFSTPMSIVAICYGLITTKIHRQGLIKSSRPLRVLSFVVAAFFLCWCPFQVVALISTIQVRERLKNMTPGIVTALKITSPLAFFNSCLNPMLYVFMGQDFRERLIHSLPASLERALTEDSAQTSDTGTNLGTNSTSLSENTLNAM

In assay [3] the target is T3, FLAG-tagged human FPR1 (Hs_FPR1) (human, UniProt P21462 1-350).
T3 sequence (looked up): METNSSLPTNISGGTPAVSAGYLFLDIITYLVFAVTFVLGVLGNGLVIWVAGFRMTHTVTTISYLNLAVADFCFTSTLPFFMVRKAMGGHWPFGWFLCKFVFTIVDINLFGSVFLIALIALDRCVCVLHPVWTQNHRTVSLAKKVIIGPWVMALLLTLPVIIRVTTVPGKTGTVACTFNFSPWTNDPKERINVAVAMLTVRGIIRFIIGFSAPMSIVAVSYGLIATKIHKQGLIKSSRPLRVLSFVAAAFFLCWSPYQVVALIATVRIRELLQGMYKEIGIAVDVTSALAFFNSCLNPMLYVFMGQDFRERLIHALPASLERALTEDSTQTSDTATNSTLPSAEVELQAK

Assay [4] addresses T4, FLAG-tagged mouse Fpr2 (Mm_Fpr2) (mouse, UniProt O88536 1-351).
T4 sequence (looked up): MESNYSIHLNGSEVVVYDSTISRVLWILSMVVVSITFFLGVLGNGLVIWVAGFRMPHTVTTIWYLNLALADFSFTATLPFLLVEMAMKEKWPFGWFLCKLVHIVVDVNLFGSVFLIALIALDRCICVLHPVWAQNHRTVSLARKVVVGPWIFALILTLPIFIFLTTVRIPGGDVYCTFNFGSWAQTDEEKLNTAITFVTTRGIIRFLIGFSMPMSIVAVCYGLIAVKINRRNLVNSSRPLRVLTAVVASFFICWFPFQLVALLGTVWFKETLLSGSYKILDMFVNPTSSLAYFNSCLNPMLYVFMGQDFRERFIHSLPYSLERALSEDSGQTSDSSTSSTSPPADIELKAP

Assay [5] deals with T3, FLAG-tagged human FPR1 (Hs_FPR1). The experiment in a line: flow cytometry on cells; competition binding: HEK293 cells stably expressing the receptor, lifted in PBS, on ice 90 min with 10 nM K(5/6-FAM)-WKYMVm and increasing unlabeled ligand; mean fluorescence of 5000 cells as % of that without competitor; One site-Fit logIC50. (In general: Flow cytometry measures light scatter and fluorescence of single cells or particles in a stream.)

Assay [6] concerns the target T1, FLAG-tagged human FPR2 (Hs_FPR2). This is another data set of the same source.
In assay [7] the target is T2, FLAG-tagged mouse Fpr1 (Mm_Fpr1). This is another data set of the same source.
Assay [8] concerns the target T3, FLAG-tagged human FPR1 (Hs_FPR1). This is another data set of the same source.
For assay [9], the target named is T4, FLAG-tagged mouse Fpr2 (Mm_Fpr2). This is another data set of the same source.
For assay [10], the target named is T5, FLAG-Mm_Fpr2 C-terminally fused to Renilla Luciferase 8 (mouse, UniProt O88536 1-351).
T5 sequence (looked up): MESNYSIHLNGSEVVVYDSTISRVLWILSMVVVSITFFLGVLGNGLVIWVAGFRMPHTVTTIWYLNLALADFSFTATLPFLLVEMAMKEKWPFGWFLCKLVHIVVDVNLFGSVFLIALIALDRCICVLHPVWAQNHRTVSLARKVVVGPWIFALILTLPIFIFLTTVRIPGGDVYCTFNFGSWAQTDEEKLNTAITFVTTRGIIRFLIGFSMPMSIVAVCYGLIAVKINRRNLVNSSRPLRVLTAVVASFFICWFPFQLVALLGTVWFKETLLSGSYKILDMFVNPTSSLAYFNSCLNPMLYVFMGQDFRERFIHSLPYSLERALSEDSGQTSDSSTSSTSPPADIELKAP
The experiment in a line: cell-based or functional assay.

Assay [11] concerns the target T6, FLAG-Mm_Fpr1 C-terminally fused to Renilla Luciferase 8 (mouse, UniProt P33766 1-364).
T6 sequence (looked up): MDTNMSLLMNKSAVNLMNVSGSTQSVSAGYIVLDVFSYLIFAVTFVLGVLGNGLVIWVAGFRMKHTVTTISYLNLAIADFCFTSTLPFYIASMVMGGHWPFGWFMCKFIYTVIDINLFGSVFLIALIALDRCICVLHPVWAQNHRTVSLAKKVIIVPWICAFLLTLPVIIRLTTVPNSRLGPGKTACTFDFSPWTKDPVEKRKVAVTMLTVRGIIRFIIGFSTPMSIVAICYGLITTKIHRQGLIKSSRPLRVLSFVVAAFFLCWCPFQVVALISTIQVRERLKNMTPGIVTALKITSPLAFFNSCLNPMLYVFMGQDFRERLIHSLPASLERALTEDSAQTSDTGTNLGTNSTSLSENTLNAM
The experiment in a line: cell-based or functional assay.

The target of assay [12] is T7, FLAG-Hs_FPR1 C-terminally fused to Renilla Luciferase 8 (human, UniProt P21462 1-350).
T7 sequence (looked up): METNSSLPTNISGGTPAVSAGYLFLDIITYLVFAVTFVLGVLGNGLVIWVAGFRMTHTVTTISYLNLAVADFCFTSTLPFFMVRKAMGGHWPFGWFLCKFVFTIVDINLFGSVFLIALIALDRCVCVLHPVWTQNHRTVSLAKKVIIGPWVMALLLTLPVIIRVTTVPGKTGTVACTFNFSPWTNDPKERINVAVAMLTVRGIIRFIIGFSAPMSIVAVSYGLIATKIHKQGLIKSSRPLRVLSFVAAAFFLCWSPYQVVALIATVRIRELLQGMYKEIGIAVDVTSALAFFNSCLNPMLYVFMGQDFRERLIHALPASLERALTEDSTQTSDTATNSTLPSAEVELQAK
Kind of assay: cell-based or functional assay.

In assay [13] the target is T8, FLAG-Hs_FPR2 C-terminally fused to Renilla Luciferase 8 (human, UniProt P25090 1-351).
T8 sequence (looked up): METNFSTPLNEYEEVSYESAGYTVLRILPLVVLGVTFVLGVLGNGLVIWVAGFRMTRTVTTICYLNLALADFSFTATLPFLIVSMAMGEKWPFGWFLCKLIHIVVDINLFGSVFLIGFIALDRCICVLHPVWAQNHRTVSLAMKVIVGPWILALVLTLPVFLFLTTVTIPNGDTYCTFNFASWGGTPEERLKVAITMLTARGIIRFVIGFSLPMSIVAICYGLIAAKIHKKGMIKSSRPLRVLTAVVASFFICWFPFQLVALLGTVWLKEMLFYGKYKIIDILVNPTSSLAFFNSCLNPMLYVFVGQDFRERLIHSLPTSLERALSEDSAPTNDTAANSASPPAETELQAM
The experiment in a line: cell-based or functional assay.

Assay [14] addresses T5, FLAG-Mm_Fpr2 C-terminally fused to …. Kind of assay: cell-based or functional assay. This is another data set of the same source.
Assay [15] deals with T6, FLAG-Mm_Fpr1 C-terminally fused to …. The experiment in a line: cell-based or functional assay. This is another data set of the same source.
Assay [16] deals with T7, FLAG-Hs_FPR1 C-terminally fused to …. The experiment in a line: cell-based or functional assay. The source holds these as a separate data set.
Assay [17] deals with T8, FLAG-Hs_FPR2 C-terminally fused to …. The experiment in a line: cell-based or functional assay. This is another data set of the same source.
In assay [18] the target is T1, FLAG-tagged human FPR2 (Hs_FPR2). The experiment in a line: cell-based or functional assay.
Assay [19] has the same target. Kind of assay: cell-based or functional assay. This is another data set of the same source.
Assay [20] addresses T2, FLAG-tagged mouse Fpr1 (Mm_Fpr1). The experiment in a line: cell-based or functional assay.

Like-named read-outs stand apart in the source and are kept apart here. Where no end group is shown, it is not given here. The star is where a group is joined. For = O=C*

fMet-Leu-Phe (fMLF) (peptide): the receptor internalization (flow cytometry): Emax (% of 1 μM WKYMVm) stood at 0.343% in assay [1], 92.5% in assay [2], 92.1% in assay [3] and 54.4% in assay [4]. In addition, the receptor internalization (flow cytometry): Log EC50 (M) in [1] was -8.95 log M; in [2], -5.35 log M; in [3], -7.38 log M; in assay [4], -3.8 log M. The molecule further displayed a Log IC50 in [5] of -6.19 log M. This molecule had a Max Comp (%) in assay [5] of 88%. Besides, the ERK1/2 phosphorylation (Western blot): Emax (% of 1 μM WKYMVm) came to 40.2% in assay [6], 72.7% in [7] and 143% in assay [8]. Also, the ERK1/2 phosphorylation (Western blot): Log EC50 (M) was -4.82 log M in [6], -5.64 log M in assay [7] and -8.91 log M in [8].
On to For-MLFK [fMet-Leu-Phe-Lys (fMLFK)], for which the receptor internalization (flow cytometry): Emax (% of 1 μM WKYMVm) in [1] came to 99.9%; in [2] it was 179%; in [3], 79.3%; in assay [4] it was 81.6%. Besides, the receptor internalization (flow cytometry): Log EC50 (M) in assay [1] was -4.48 log M; in assay [2], -5.21 log M; in [3] it was -7.79 log M; in assay [4] it was -4.94 log M. The Log IC50 in assay [5] is -6.23 log M. In addition, in [5], the Max Comp (%) was found to be 63.3%. Further, the ERK1/2 phosphorylation (Western blot): Emax (% of 1 μM WKYMVm) is 74.3% in assay [6], 140% in [7], 112% in assay [8] and 176% in assay [9]. The ERK1/2 phosphorylation (Western blot): Log EC50 (M) in assay [6] is -5.88 log M; in assay [7] it was -6.07 log M; in assay [8] it was -8.16 log M; in assay [9] it was -5.91 log M. The “BRET of receptor-RLuc8 with Venus-mGsi: Emax (% of 1 μM WKYMVm)” value in assay [10] is 82.7%; in assay [11], 62.9%; in [12], 104%; in assay [13], 80.7%. In addition, the “BRET of receptor-RLuc8 with Venus-mGsi: Log EC50 (M)” value in assay [10] was -4.52 log M; in assay [11], -5.02 log M; in assay [12], -7.07 log M; in assay [13], -4.57 log M. Besides, the “BRET of receptor-RLuc8 with Arrestin 3-YFP: Emax (% of 1 μM WKYMVm)” value in assay [14] was 72.5%; in assay [15], 95.2%; in [16], 97.4%; in assay [17], 92.7%. For the same molecule, the “BRET of receptor-RLuc8 with Arrestin 3-YFP: Log EC50 (M)” value was -4.79 log M in assay [14], -5.14 log M in assay [15], -7.45 log M in [16] and -4.44 log M in assay [17].
Take For-MTPMRKINPLMKLIN [MCT-2 (Formyl-MTPMRKINPLMKLIN from Cytochrome b)]: the “ERK1/2 phosphorylation (Western blot): Emax (% of 1 μM WKYMVm)” value in assay [18] came out at 93.9%. Besides, in assay [18], the “ERK1/2 phosphorylation (Western blot): Log EC50 (M)” value was -6.72 log M. Also, the “receptor internalization (flow cytometry): Emax (% of 1 μM WKYMVm)” value in assay [19] worked out at 63.3%; in [20] it was 7.39%. The “receptor internalization (flow cytometry): Log EC50 (M)” value is -6.87 log M in [19] and -7.24 log M in assay [20]. The results for the “BRET of receptor-RLuc8 with Venus-mGsi: Emax (% of 1 μM WKYMVm)” value in assay [10], in [11] and in assay [13] were 25%, -8.19% and 44.4%, respectively. Further, the “BRET of receptor-RLuc8 with Venus-mGsi: Log EC50 (M)” value in assay [10] is -4.77 log M; in [11], -7.78 log M; in assay [13], -6.23 log M. The results for the “BRET of receptor-RLuc8 with Arrestin 3-YFP: Emax (% of 1 μM WKYMVm)” value in assay [14] and in assay [17] were 12.1% and 51.8%, respectively. The “BRET of receptor-RLuc8 with Arrestin 3-YFP: Log EC50 (M)” value in [14] is -10.3 log M; in assay [17], -6.06 log M.
Turning to For-MTPMRKINPLMKLIN [MCT-2 (Formyl-… from Cytochrome b)], in assay [4], the receptor internalization (flow cytometry): Emax (% of 1 μM WKYMVm) was found to be 43.9% and the receptor internalization (flow cytometry): Log EC50 (M) was -8.24 log M. In assay [9], the ERK1/2 phosphorylation (Western blot): Emax (% of 1 μM WKYMVm) worked out at 169% and the ERK1/2 phosphorylation (Western blot): Log EC50 (M) was -6.96 log M.
